Paper PMC3302164 (Science Signaling, 2010)

Target: HA-PP2cA, expressed in HEK 293 cells (UniProt P67775 1-309)
Assay: co-IP

Sequence of HA-PP2cA, expressed in HEK 293 cells (P67775 whole entry): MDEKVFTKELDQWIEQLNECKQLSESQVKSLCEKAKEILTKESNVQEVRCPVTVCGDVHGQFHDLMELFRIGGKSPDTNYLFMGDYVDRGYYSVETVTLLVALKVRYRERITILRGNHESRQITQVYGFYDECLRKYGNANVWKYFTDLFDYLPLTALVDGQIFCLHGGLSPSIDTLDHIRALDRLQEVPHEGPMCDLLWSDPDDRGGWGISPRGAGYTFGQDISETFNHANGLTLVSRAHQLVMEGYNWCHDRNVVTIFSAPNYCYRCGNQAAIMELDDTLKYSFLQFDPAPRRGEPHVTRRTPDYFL

B1: FLAG-KAP1 (wild type), expressed in HEK 293 cells (natural protein, human, UniProt Q13263 1-835, looked up)
chain: MAASAAAASAAAASAASGSPGPGEGSAGGEKRSTAPSAAASASASAAASSPAGGGAEALELLEHCGVCRERLRPEREPRLLPCLHSACSACLGPAAPAAANSSGDGGAAGDGTVVDCPVCKQQCFSKDIVENYFMRDSGSKAATDAQDANQCCTSCEDNAPATSYCVECSEPLCETCVEAHQRVKYTKDHTVRSTGPAKSRDGERTVYCNVHKHEPLVLFCESCDTLTCRDCQLNAHKDHQYQFLEDAVRNQRKLLASLVKRLGDKHATLQKSTKEVRSSIRQVSDVQKRVQVDVKMAILQIMKELNKRGRVLVNDAQKVTEGQQERLERQHWTMTKIQKHQEHILRFASWALESDNNTALLLSKKLIYFQLHRALKMIVDPVEPHGEMKFQWDLNAWTKSAEAFGKIVAERPGTNSTGPAPMAPPRAPGPLSKQGSGSSQPMEVQEGYGFGSGDDPYSSAEPHVSGVKRSRSGEGEVSGLMRKVPRVSLERLDLDLTADSQPPVFKVFPGSTTEDYNLIVIERGAAAAATGQPGTAPAGTPGAPPLAGMAIVKEEETEAAIGAPPTATEGPETKPVLMALAEGPGAEGPRLASPSGSTSSGLEVVAPEGTSAPGGGPGTLDDSATICRVCQKPGDLVMCNQCEFCFHLDCHLPALQDVPGEEWSCSLCHVLPDLKEEDGSLSLDGADSTGVVAKLSPANQRKCERVLLALFCHEPCRPLHQLATDSTFSLDQPGGTLDLTLIRARLQEKLSPPYSSPQEFAQDVGRMFKQFNKLTEDKADVQSIIGLQRFFETRMNEAFGDTKFSAVLVEPPPMSLPGAGLSSQELSGGPGDGP
With B1 the “extent of interaction relative to that with PP1α, after doxorubicin” value was roughly 53%.
